Source: PMC8641930, “PLK1 regulates the PrimPol damage tolerance pathway during the cell cycle” (Science Advances, 2021)
Where a chain is given by its changes, count along the chain named. Names and notes keep the numbering of the source. One block for each binder: values may come before it.

Target: T1, RPA70N (RPA70 1-120) (UniProt P27694 1-120)
T1 construct: Replication Protein A 70 kDa subunit (RPA70), N-terminal domain, residues 1-120; source: E. coli BL21, purified (Ni-NTA, thrombin cleavage of the tag, Superdex 75 SEC)
T1 sequence (P27694 1-120): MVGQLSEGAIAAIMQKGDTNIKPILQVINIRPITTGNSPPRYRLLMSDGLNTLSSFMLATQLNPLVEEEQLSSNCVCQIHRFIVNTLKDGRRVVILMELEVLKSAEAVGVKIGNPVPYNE
Experiment: SEC; analytical size exclusion chromatography, Superdex 75 10/300 GL; 50 mM tris-HCl, 100 mM NaCl, 2 mM TCEP; CTD variants mixed with RPA70N at 35 uM; interaction read as a shift of the peaks relative to the single proteins
Conditions: both partners purified

binding result: binds
B1: PrimPol CTD (PrimPol 480-560) (domain or fragment, human, UniProt Q96LW4 480-560, looked up)
chain: TTDEADETRSNETQNPHKPSPSRLSTGASADAVWDNGIDDAYFLEATEDAELAEAAENSLLSYNSEVDEIPDELIIEVLQE
notes: also called C-terminal region of WT PrimPol; PrimPol C-terminal domain; source: E. coli BL21, purified (Ni-NTA, Q-Sepharose, Superdex 75 SEC)

binding result: binds
B2: PrimPol CTD (PrimPol 480-560) S538E (domain or fragment, human, UniProt Q96LW4 480-560, looked up)
chain: B1 chain with S59E
notes: Primase-Polymerase (PrimPol), human, C-terminal domain, residues 480-560, phosphomimetic mutant S538E; also called C-terminal region of mutant PrimPol; CTD S538E; source: E. coli BL21, purified (Ni-NTA, Q-Sepharose, Superdex 75 SEC)

binding result: binds
B3: PrimPol CTD (PrimPol 480-560) S538A (domain or fragment, human, UniProt Q96LW4 480-560, looked up)
chain: B1 chain with S59A
notes: Primase-Polymerase (PrimPol), human, C-terminal domain, residues 480-560, phospho-null mutant S538A; also called C-terminal region of mutant PrimPol; CTD S538A; source: E. coli BL21, purified (Ni-NTA, Q-Sepharose, Superdex 75 SEC)
